From patent US20130158103A1

Biological target: TGFβ1 (PeproTech Inc, Rocky Hill, N.J.)
Assay: cell-based or functional assay

“human decorin (Accession #NM-001920), expressed in human corneal fibroblasts (HSF) from pcDNA3.1-decorin (from UniProt P07585 31-359)” was tested, and the SMA RNA level (real-time PCR), decorin-transfected vs un-transfected HSF with TGFβ1 1 ng/ml was over 6 fold, the SMA protein level (western blot), decorin-transfected vs un-transfected HSF with TGFβ1 was 83% and the SMA-stained cells (immunocytochemistry), decorin-transfected vs un-transfected HSF with TGFβ1 was 79%. For the same substance, the collagen type I RNA level (real-time PCR), decorin-transfected vs naked-vector transfected HSF with TGFβ1 1 ng/ml was 1 fold, the collagen type III RNA level (real-time PCR), decorin-transfected vs naked-vector transfected HSF with TGFβ1 1 ng/ml was 0.9 fold and the collagen type IV RNA level (real-time PCR), decorin-transfected vs naked-vector transfected HSF with TGFβ1 1 ng/ml was 3.2 fold. The fibronectin RNA level (real-time PCR), decorin-transfected vs naked-vector transfected HSF with TGFβ1 1 ng/ml was 3.1 fold.
